According to patent publication US8541175B2, “Detection of molecular interactions using a reduced affinity enzyme complementation reporter system” (The Board of Trustees of the Leland Stanford Junior …, priority 2006, dated 2013):

Assays:
Assay type in all cases: cell-based
[1] = biological target: EGFR and ErbB2 (Homo sapiens, UniProt P04626); assay: Low affinity β-gal complementation, EGFR-ErbB2 heterodimerization; conditions: for loss of β-gal activity (heterodimer dissociation) after removal of ligand: EGFRω-ErbB2α* cells, ligand added, then washout
Excerpt: To perform a quantitative comparison of the different pairs of receptors, receptor expression level in cells was controlled, as the amount of β-gal fusion protein affects β-gal enzyme activity (FIG. 2). […] These cells were engineered to express either the ErbB2-ω or the EGFR-ω fusion proteins. Each of the ω-expressing parental cell lines were then split and transduced with each of three constructs encoding different α-fusion proteins, EGFR-α*, ErbB2-α*, and ErbB3-α*. Because the cells were generated from the same parental line, they expressed equivalent amounts of ω. To allow measurement of α* chimeric protein expression levels, YFP was included in each construct, between the ErbB receptor and the α*.

[2] = biological target: EGFR homodimers in the presence of excess ErbB2 (Homo sapiens, UniProt P04626); assay: EGFR homodimerization in EGFRα*-EGFRω cell line overexpressing wild-type ErbB2; conditions: EGFRα*-EGFRω cells overexpressing wild-type ErbB2; increasing concentrations of EGF
Excerpt: As a test of this hypothesis, the wildtype ErbB2 lacking a β-gal fragment was overexpressed in the EGFRα*-EGFRω cell line. […] This disruption allowed EGFRα* and EGFRω to interact and homodimerize.

[3] = biological target: T1, ErbB2 homodimers (Homo sapiens, UniProt P04626); assay: Low affinity β-gal complementation, ErbB2ω-ErbB2α* homodimerization; conditions: ligand for 45 min; 20,000 cells per well
T1 construct: ErbB2 (aa 1-686); expressed in transfected cells; host or cells: C2C12 cells, retroviral transduction
Excerpt: To perform a quantitative comparison of the different pairs of receptors, receptor expression level in cells was controlled, as the amount of β-gal fusion protein affects β-gal enzyme activity (FIG. 2). To this end, two parental cell lines were constructed using C2C12 cells in which ErbB family members are expressed at very low levels (S. Corti et al., Exp Cell Res 268, 36 (Aug. 1, 2001)). These cells were engineered to express either the ErbB2-ω or the EGFR-ω fusion proteins. Each of the ω-expressing parental cell lines were then split and transduced with each of three constructs encoding different α-fusion proteins, EGFR-α*, ErbB2-α*, and ErbB3-α*. Because the cells were generated from the same parental line, they expressed equivalent amounts of ω. To allow measurement of α* chimeric protein expression levels, YFP was included in each construct, between the ErbB receptor and the α*. […] YFP was imaged by confocal microscopy to ensure that the receptor fusion proteins were appropriately localized to the plasma membrane, which is essential to their function (FIG. 3).
Cells were returned to a 37° C.
Isoproterenol, propranolol and rapamycin were from Sigma.

| Substance | loss of β-gal activity (heterodimer dissociation) after removal of ligand [1] | β-gal activity in response to EGF, no antibody [2] | response of ErbB2ω-ErbB2α* cells to ligand (β-gal activity) [3] | EGFRω-ErbB2α* heterodimer formation over time (enzyme activity) ([1]; 100 ng/ml EGF) | ligand-induced heterodimerization of EGFR with ErbB2 (β-gal activity) ([1]; ligand for 45 min, 20,000 cells per well) |
| --- | --- | --- | --- | --- | --- |
| TGF-α: recombinant human TGF-α from Peprotech, EGFR ligand | signal decayed more rapidly following TGF-α than after EGF exposure | – | – | – | – |
| EGF: recombinant human EGF from Peprotech, ligand that binds the EGFR | β-gal activity decreased over time | failed to stimulate β-gal activity | not responsive | time-dependent increase in enzyme activity | heterodimerization of EGFR with ErbB2 |
